The target in one test is T1, Kap114p (S. cerevisiae, UniProt P53067 1-1004).
T1 construct: Kap114p, S. cerevisiae, full length, amplified from total genomic DNA; also called wild type Kap114p; source: E. coli (Rosetta strain), purified (GST resin, MonoQ, Superdex 200)
T1 sequence (looked up): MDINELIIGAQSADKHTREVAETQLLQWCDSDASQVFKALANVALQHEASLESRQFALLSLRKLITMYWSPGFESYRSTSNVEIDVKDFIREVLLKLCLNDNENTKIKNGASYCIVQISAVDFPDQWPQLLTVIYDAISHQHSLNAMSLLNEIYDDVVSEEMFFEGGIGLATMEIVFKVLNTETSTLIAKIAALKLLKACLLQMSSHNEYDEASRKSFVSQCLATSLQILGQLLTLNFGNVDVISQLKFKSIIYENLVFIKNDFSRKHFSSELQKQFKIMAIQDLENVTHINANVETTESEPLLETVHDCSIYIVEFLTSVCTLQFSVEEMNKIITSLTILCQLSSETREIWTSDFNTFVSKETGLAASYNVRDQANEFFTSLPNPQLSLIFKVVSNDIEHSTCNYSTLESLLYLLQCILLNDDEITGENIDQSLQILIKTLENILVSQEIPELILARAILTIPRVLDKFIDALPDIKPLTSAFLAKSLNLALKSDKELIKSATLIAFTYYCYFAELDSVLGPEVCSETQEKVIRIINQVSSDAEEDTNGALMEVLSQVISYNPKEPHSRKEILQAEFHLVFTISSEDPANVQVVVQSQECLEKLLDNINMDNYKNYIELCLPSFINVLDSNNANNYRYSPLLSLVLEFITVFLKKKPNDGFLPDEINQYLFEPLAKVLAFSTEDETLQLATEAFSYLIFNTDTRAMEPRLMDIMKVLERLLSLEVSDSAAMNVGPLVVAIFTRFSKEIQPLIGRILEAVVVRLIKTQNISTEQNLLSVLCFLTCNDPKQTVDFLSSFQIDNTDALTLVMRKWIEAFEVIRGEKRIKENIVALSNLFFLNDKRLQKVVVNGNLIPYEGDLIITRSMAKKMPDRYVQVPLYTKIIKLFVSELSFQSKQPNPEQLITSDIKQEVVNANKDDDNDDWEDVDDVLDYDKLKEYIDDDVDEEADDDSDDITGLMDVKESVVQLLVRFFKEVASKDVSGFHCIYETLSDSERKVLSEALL
In words: ITC; Kap114p (wild type or mutant) 50 uM in the sample cell, partner 500 uM in the syringe; 25 °C; 20 mM HEPES pH 7.4, 150 mM NaCl; triplicate. The note with it: both partners purified.

The next test concerns the target T2, Kap114pΔ(932-941) (S. cerevisiae, UniProt P53067 1-1004, Δ(932-941)).
T2 construct: Kap114p, S. cerevisiae, full length with residues 932-941 deleted; also called Kap114p(D932-941); Kap114p deletion mutant lacking the HEAT19 loop (a.a. 932-941); source: E. coli (Rosetta strain), purified (GST resin, MonoQ, Superdex 200)
T2 sequence (looked up): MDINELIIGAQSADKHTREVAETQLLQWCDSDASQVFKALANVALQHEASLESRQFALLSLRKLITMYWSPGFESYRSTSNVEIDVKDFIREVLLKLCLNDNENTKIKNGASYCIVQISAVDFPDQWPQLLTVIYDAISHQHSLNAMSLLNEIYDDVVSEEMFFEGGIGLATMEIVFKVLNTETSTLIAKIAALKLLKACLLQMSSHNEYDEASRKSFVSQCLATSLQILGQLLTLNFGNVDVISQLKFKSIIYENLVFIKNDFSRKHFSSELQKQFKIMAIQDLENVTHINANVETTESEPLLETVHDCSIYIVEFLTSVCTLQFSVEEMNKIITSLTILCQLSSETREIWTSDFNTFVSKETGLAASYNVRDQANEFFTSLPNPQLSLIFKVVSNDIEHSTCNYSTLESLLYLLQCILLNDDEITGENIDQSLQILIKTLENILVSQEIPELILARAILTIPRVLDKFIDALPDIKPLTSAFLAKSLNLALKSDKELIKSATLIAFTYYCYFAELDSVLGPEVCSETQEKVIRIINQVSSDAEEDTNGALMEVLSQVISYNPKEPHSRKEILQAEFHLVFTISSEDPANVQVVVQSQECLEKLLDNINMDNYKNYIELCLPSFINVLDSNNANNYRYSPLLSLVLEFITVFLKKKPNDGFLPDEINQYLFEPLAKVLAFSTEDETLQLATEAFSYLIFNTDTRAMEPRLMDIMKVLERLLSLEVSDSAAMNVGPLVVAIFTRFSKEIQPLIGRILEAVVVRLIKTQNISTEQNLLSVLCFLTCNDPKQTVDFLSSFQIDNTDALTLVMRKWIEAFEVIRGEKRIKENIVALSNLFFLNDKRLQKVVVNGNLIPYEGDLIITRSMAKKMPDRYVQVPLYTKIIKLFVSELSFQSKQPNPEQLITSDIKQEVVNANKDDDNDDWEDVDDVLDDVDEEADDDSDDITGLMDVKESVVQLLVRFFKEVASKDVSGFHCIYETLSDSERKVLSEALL
The test is described as above. The note with it: both partners purified.

Where “and” joins values, the source holds several entries; their conditions need not be identical. Identical values can stand only once.

B1: core domain of yTBP (a.a. 61-240) (domain or fragment, S. cerevisiae, UniProt P13393 61-240, looked up)
chain: SGIVPTLQNIVATVTLGCRLDLKTVALHARNAEYNPKRFAAVIMRIREPKTTALIFASGKMVVTGAKSEDDSKLASRKYARIIQKIGFAAKFTDFKIQNIVGSCDVKFPIRLEGLAFSHGTFSSYEPELFPGLIYRMVKPKIVLLIFVSGKIVLTGAKQREEIYQAFEAIYPVLSEFRKM
notes: 61-240; also called yTBP^C; yTBPc; source: E. coli (Rosetta strain), purified (Ni-NTA, HiTrap SP, Superdex 75); not shown: 6xHis, N-terminal, cleaved
Regarding B1, the Ka with Kap114p was 9.85e+08 M⁻¹ and 6.92e+08 M⁻¹ and 9.37e+08 M⁻¹; in the test with Kap114pΔ(932-941), 5.09e+06 M⁻¹ and 8.69e+06 M⁻¹ and 6.15e+06 M⁻¹.

The values above are taken from publication PMC10491584, “Structural convergence endows nuclear transport receptor Kap114p with a transcriptional repressor function toward TATA-binding protein” (Nature Communications, 2023).
